Source: patent US7160981B2, “Peptide antagonists of DP transcription factors” (Prolifix Limited, priority 1996, dated 2007)
Entries after “also recorded” stand apart in the source; their conditions may differ.

T1: pRb / adenovirus E1a protein interaction (Homo sapiens, UniProt P06400)
T1 construct: GST; made in house; host or cells: pRb fusion purified on glutathione Sepharose; E1a made by in vitro translation
T1 sequence (P06400 1-928): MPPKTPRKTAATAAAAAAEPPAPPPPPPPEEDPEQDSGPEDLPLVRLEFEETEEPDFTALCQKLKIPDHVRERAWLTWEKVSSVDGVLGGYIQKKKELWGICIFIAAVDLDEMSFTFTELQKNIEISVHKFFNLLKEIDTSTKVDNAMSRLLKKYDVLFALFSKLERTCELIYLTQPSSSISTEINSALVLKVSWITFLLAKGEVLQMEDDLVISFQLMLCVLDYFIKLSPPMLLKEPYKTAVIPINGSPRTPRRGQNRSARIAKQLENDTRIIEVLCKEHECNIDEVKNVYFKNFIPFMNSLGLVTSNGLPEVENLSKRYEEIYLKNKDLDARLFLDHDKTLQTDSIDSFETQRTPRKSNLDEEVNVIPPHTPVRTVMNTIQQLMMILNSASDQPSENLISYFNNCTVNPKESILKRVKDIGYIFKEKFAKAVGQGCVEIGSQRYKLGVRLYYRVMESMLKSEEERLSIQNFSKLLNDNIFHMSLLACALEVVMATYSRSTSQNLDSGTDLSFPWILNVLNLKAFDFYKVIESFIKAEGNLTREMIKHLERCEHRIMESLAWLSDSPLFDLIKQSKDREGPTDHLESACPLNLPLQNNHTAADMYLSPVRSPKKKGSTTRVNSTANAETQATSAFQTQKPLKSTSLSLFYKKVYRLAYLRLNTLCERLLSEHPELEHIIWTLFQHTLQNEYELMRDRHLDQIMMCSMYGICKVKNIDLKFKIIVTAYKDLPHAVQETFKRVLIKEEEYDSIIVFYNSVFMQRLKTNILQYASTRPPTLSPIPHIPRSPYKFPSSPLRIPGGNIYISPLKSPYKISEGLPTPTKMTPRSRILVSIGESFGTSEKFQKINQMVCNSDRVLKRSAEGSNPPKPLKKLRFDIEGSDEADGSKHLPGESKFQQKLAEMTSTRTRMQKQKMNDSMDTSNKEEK


How the values were obtained:
DP-1/E2F-1 heterodimer = target: T2, DP-1/E2F-1 heterodimer (Homo sapiens, UniProt Q01094); experiment: binding assay: GST-E2F-1 fusion protein bound to in vitro translated DP-1, peptide competition; details: peptide included in binding reaction
T2 construct: GST (N); made in house; DP-1 made by in vitro translation
Source text: To determine the influence of the DEF box region upon the formation of the DP-1/E2F heterodimer, we used a binding assay in which E2F-1, expressed as a GST-E2F-1 fusion protein, bound to in vitro translated DP-1, an assay used previously to measure dimerization between DP and E2F proteins (31,32). Peptides were included in the binding reaction and their ability to compete with wild-type DP-1 for E2F-1 assessed by the amount of DP-1 which remained bound to the E2F-1 fusion protein.
(§1) GST-E2F-1, E2F-2, E2F-3 and pRb have been described previously (27,31,32) and were purified to homogeneity using glutathione Sepharose. In vitro translated DP-1, DP-1^172/173, E2F-1 and E1a were translated as described previously (27,31,32).
(§2) Gel retardation was performed using 5 to 10 μg of either F9 EC or JM cell extract with either an E2F or ATF site as previously described (15). Where fusion proteins were used, about 25 ng of either DP-1 or E2F-1 were used in each binding assay. For in vitro translates, about 6 μl of the translation mix was used in each binding assay. Gel retardation with an E2F binding site taken from the adenovirus E2a promoter was as previously described (15).

[1] = target: T3, E2F DNA binding activity of DP-1/E2F-1 heterodimer (Homo sapiens, UniProt Q01094); experiment: DP-1/E2F-1 DNA binding assay (gel retardation, bacterial fusion proteins); assay type: biochemical; details: peptide titrated 1, 0.5, 0.1, 0.01 nmol
T3 construct: GST (N); made in house; host or cells: bacterial
Source text: Since the peptides function as antagonists of the formation of the DP/E2F heterodimer, we reasoned that they may also interfere with E2F DNA binding activity. To address this question, we determined whether the E2F DNA binding activity created in vitro from combining bacterial DP and E2F fusion proteins was affected by the peptides.
As previously shown, the interaction between DP-1 and E2F-1 leads to co-operative DNA binding activity. Peptide H (SEQ ID NO:1) was titrated into the DP-1/E2F-1 DNA binding assay, using 1 nmol, 0.5 nmol, 0.1 nmol and 0.01 nmol of peptide.
as §2

[2] = system: physiological E2F DNA binding activity (DP-1/E2F heterodimer) in F9 embryonal carcinoma cell extracts; experiment: gel retardation, E2F site, F9 EC cell extracts; assay type: biochemical; details: for inactivation of E2F DNA binding activity in F9 EC cell extracts: F9 EC cell extract, peptide up to 1 nmol
Source text: Because the DEF box peptides can antagonise DNA binding activity of the DP-1/E2F heterodimer formed in vitro, we went on to establish their effects on physiological E2F. For this experiment, we used extracts prepared from F9 embryonal carcinoma (EC) cells, since these cells contain high levels of endogenous E2F DNA binding activity as a DP-1/E2F-heterodimer (26).
(§3) In a similar fashion to its effect upon the in vitro formed activity, the physiological DNA binding activity in F9 EC cell extracts was inactivated upon titration of peptide H (using the same concentrations mentioned above), but not by H1. This effect was specific for E2F since no effect on the unrelated DNA binding activity ATF was observed under similar conditions.
as §2

[3] = target: T1, pRb / adenovirus E1a protein interaction; experiment: specificity control: binding of pRb to in vitro translated adenovirus E1a protein; details: unrelated protein-protein interaction control
Protocol: To evaluate the specificity of this effect, we undertook two controls. Firstly, the effect of DEF box derived peptides on an unrelated but well characterised protein-protein interaction was assessed, namely the binding of pRb to the adenovirus E1a protein (34). The E1a protein, when provided in the assay as an in vitro translate, specifically bound to pRb. […] Secondly, unrelated peptides representing other regions of DP-1 or subdomains of peptide H were assessed in the binding reaction. […] Overall, the results argue that peptide H antagonises the interaction between DP-1 and E2F-1 in the formation of a heterodimer.
as §1

DP-1/E2F-3 heterodimer = target: T4, DP-1/E2F-3 heterodimer (Homo sapiens, UniProt O00716); experiment: binding assay: GST-E2F-3 bound to in vitro translated DP-1; details: peptide 5 nmol, 1 nmol, 100 pmol
T4 construct: GST (N); made in house; host or cells: GST fusion purified on glutathione Sepharose; DP-1 made by in vitro translation
Source text: (§4) FIG. 2 illustrates that peptides containing DEF box sequence prevent DP-1 forming a heterodimer with E2F family members. The ability of in vitro translated DP-1 (indicated by bracket) to bind to GST-E2F-1 (tracks 1,2,3 and 4), GST-E2F-2 (5,6,7 and 8) or GST-E2F-3 (9,10,11 and 12) in the absence (tracks 1,5 and 9) or presence of decreasing levels of peptide H (5 nmol; tracks 2,6 and 10; 1 nmol tracks 3,7 and 11 or 100 pmol tracks 4,8 and 12).
(§5) In the second, the activity of the DEF box antagonist peptide H was assessed on heterodimers formed between DP-1 and the other E2F family members, E2F-2 and E2F-3, which show high conservation with E2F-1 across the DEF box. […] We conclude therefore that peptides representing sequence derived from the DEF box function as specific antagonists of the DP-1/E2F heterodimer.
as §1

ATF DNA binding activity = experiment: gel retardation, ATF site (specificity control); assay type: biochemical; details: similar conditions as E2F assay
Protocol: as §3, §2

DP-1/E2F-2 heterodimer = target: T5, DP-1/E2F-2 heterodimer (Homo sapiens, UniProt Q14209); experiment: binding assay: GST-E2F-2 bound to in vitro translated DP-1; details: peptide 5 nmol, 1 nmol, 100 pmol
T5 construct: GST (N); made in house; host or cells: GST fusion purified on glutathione Sepharose; DP-1 made by in vitro translation
Source text: as §4, §5, §1

DP-1/E2F-1 interaction = target: T6, DP-1/E2F-1 interaction (UniProt Q01094+Q08639, A172G/L173G); experiment: yeast two-hybrid assay LexA-DP-1 / GAL4 activation domain-E2F-1; assay type: cell-based; details: A172 and L173 changed to glycine
T6 construct: expressed in transfected cells; host or cells: yeast strain CTY10-5d
Source text: (§6) To study the role of the DEF box region in the context of the wild-type DP-1 protein, we took advantage of a yeast assay previously used to assess the properties of the DP-1/E2F heterodimer (23,31). When assayed in the context of two-hybrid proteins, with DP-1 is fused the LexA DNA binding domain and E2F-1 to the transcriptional activation domain of GAL4, transcriptional stimulation of a reporter construct driven by LEXA DNA binding sites was apparent only when both proteins were expressed together. Similarly, transcriptional activation of a reporter gene driven by physiological E2F DNA binding sites, in p4xWT.CYC1 (23,31), was dependent upon the presence of both proteins.
(§7) The yeast two-hybrid expression plasmids used were PLEX(HIS) which contains the complete LexA coding sequence, pGAD.L6 which contains the Gal 4 transcription activation domain. pLEX(HIS).DP-1 contains the murine DP-1 fused to the C-terminus of the LexA coding sequence and GAD.E2F-1 the human E2F-1 downstream of the Gal4 activation domain; all constructs were as described previously (23,31), apart from pLEX-DP-1/MT which contained DP-1 with residues 172 and 173 altered to glycine residues. Yeast strain CTY10-5d was used for the two-hybrid assay and W3031a, which carries p4xWT.CYC 1, for the E2F site-dependent transcription assay (23,31).

[4] = system: E2F site-dependent transcription; experiment: yeast E2F binding site reporter assay (p4xWT.CYC1); assay type: cell-based; details: A172 and L173 changed to glycine
Source text: as §6, §7

T3 sequence (Q01094 whole entry, the tested form may be a part, one chain of several): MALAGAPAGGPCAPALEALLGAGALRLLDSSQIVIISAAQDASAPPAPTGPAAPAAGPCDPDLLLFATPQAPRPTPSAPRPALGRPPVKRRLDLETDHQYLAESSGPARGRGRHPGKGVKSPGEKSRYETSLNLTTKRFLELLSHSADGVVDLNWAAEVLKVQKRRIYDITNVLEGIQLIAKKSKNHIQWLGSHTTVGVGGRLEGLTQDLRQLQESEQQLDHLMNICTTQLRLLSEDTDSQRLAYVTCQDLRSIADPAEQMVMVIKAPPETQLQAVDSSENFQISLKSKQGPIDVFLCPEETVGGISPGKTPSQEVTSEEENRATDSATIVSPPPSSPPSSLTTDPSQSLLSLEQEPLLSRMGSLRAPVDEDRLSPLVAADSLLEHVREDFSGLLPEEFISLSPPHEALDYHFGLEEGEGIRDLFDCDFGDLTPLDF
T2 sequence (Q01094 whole entry, the tested form may be a part, one chain of several): as above
T4 sequence (O00716 whole entry, the tested form may be a part, one chain of several): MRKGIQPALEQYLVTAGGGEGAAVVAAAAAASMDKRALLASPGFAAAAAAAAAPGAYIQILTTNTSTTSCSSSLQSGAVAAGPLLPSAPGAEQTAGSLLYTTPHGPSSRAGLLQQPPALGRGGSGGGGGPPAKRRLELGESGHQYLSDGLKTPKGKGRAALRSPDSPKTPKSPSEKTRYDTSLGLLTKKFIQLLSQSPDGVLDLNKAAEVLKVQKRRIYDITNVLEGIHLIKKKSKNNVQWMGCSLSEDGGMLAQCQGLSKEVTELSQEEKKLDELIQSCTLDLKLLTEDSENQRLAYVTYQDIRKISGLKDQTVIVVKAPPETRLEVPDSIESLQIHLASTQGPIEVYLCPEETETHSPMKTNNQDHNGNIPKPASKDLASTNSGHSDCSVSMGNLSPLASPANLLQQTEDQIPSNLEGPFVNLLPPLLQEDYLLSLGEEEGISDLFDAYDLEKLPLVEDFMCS
T6 sequence (Q01094 whole entry, the tested form may be a part): as the sequence (Q01094 whole entry, the tested form may be a part, one chain of several) above
T6 sequence (Q08639 whole entry A172G/L173G, the tested form may be a part): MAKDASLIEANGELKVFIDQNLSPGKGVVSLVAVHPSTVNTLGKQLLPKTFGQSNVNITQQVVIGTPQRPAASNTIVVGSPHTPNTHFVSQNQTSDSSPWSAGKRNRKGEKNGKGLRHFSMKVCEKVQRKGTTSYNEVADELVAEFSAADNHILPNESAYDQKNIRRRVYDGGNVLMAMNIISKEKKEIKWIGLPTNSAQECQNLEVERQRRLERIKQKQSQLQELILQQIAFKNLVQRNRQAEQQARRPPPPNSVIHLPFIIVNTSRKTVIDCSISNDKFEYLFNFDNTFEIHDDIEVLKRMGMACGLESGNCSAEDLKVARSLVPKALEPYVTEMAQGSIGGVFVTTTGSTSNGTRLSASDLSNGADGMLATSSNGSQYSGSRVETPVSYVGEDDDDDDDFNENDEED
T5 sequence (Q14209 whole entry, the tested form may be a part, one chain of several): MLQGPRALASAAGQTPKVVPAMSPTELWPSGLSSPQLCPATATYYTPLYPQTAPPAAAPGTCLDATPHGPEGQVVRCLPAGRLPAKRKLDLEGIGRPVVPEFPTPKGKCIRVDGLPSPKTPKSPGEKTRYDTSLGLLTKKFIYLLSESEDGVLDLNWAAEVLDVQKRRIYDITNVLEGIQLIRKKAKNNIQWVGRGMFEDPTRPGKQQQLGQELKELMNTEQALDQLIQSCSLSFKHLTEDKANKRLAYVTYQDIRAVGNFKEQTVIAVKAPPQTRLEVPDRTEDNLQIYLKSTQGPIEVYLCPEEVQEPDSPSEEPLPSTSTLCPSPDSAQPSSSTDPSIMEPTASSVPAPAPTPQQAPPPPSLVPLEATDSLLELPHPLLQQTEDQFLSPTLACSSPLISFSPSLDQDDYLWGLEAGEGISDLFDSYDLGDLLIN

Molecule | effect on binding of DP-1 to E2F-1 (formation of DP-1/E2F-1 heterodimer) (DP-1/E2F-1 heterodimer) | inhibition of DP-1/E2F-1 DNA binding activity [1] | inactivation of E2F DNA binding activity in F9 EC cell extracts [2] | also measured
15: DP-1 peptide taken from DCB1, C-terminal side of the DEF homology region (NLVQRNRQAEQQARR) [Peptide 15, reference compound] | failed to have any noticeable effect | did not interfere with DNA binding activity | – | –
17: DP-1 peptide taken from DCB1, C-terminal side of the DEF homology region (EVERQRRLERIKQKQ) [Peptide 17, reference compound] | failed to have any noticeable effect | did not interfere with DNA binding activity | – | –
H1: peptide derived from the DEF box region which failed to affect heterodimer formation (RRRVYDALNVL) [Peptide H1] | failed to affect formation of the DP-1/E2F-1 heterodimer | did not interfere with DNA binding activity | not | –
H6: shorter DEF box peptide lacking activity (RRVYDALNVLMAMN) [Peptide H6] | lacked activity; also recorded: failed to affect formation of the DP-1/E2F-1 heterodimer | did not interfere with DNA binding activity | – | –
KNIRRRVYDALNVLMAMNIISKEKKEIKWIGLPTNSA [Peptide H, complete DEF box region, residues 163 to 199 of DP-1, 37 residues] | interfere with the binding efficiency of DP-1 and E2F-1 | Clear inhibition of DNA binding activity | inactivated | effect on binding of pRb to E1a [3]: no apparent effect; sensitivity of pocket protein-E2F complex relative to free E2F heterodimer ([2]; slower migrating E2F complex): less sensitive; effect on ability of E2F-3 to bind to DP-1 (DP-1/E2F-3 heterodimer): interfered specifically; effect on ATF DNA binding activity (ATF DNA binding activity): no effect; effect on ability of E2F-2 to bind to DP-1 (DP-1/E2F-2 heterodimer): interfered specifically
NVLMAMNIISKEKKEIKWIG [Peptide H3] | – | lower activity compared to H2 and H7 | – | –
Peptide 18: contains the N-terminal sequence taken from the DEF homology region (NESAYDQKNIRR) [reference compound] | failed to have any noticeable effect | did not interfere with DNA binding activity | – | –
RARVYAALNVLMAMNIISK [Peptide H2mt2, mutant H2 peptide] | – | – | retained some activity, but less than wild-type H2 | –
RRRAYDALNALMAMNIISK [Peptide H2mt1, mutant H2 peptide, V169 and V175 altered] | – | – | inactivated the E2F site DNA binding activity in F9 EC cell extracts with similar efficiency | –
RVYDALNVLMAMNIIS [Peptide H5, 16 residues within H2] | retained antagonistic activity | lower activity compared to H2 and H7 | – | –
DP-1^172/173: mutant DP-1 protein with residues A172 and L173 changed to glycine (protein, UniProt Q14186 1-410, looked up, variant A172G L173G) Transcription factor Dp-1: MAKDAGLIEANGELKVFIDQNLSPGKGVVSLVAVHPSTVNPLGKQLLPKTFGQSNVNIAQQVVIGTPQRPAASNTLVVGSPHTPSTHFASQNQPSDSSPWSAGKRNRKGEKNGKGLRHFSMKVCEKVQRKGTTSYNEVADELVAEFSAADNHILPNESAYDQKNIRRRVYDGGNVLMAMNIISKEKKEIKWIGLPTNSAQECQNLEVERQRRLERIKQKQSQLQELILQQIAFKNLVQRNRHAEQQASRPPPPNSVIHLPFIIVNTSKKTVIDCSISNDKFEYLFNFDNTFEIHDDIEVLKRMGMACGLESGSCSAEDLKMARSLVPKALEPYVTEMAQGTVGGVFITTAGSTSNGTRFSASDLTNGADGMLATSSNGSQYSGSRVETPVSYVGEDDEEDDDFNENDEDD | – | – | – | reduction of activity relative to wild-type DP-1 in two-hybrid assay (DP-1/E2F-1 interaction): about 50%; reduction of response of E2F binding site reporter [4]: about 50%
